Reference: patent US20200239541A1 (XYPHOS BIOSCIENCES, published 2020)

Key:
Fc-NKG2D.wt [1] = molecular target: T1, Fc-NKG2D.wt (human); assay: ELISA, Fc-NKG2D coated, MicAbody titrated; quantitative ELISA of Table 12, fitted EC50 on Fc-NKG2D.wt (20092-fold weaker than on AF)
T1 construct: also called NKG2D.wt Y|Y; natural Fc-NKG2D

Fc-NKG2D.wt [2] = molecular target: T1, Fc-NKG2D.wt; assay: ELISA, Fc-NKG2D coated, MicAbody titrated; quantitative ELISA of Table 12, fitted EC50 on Fc-NKG2D.wt (10802-fold weaker than on AF)
Fc-NKG2D.wt [3] = molecular target: T1, Fc-NKG2D.wt; assay: ELISA, Fc-NKG2D coated, MicAbody titrated; quantitative ELISA of Table 12, fitted EC50 on Fc-NKG2D.wt (4414-fold weaker than on AF)
[4] = molecular target: T2, Fc-eNKG2D12 (Y152D/Y199D) (human); assay: ELISA, Fc-eNKG2D coated, MicAbody titrated from 300 nM
T2 construct: also called eNKG2D12 D|D
T2 sequence (chain, as listed by the source Y152D Y199D Y152D Y199D limits assumed): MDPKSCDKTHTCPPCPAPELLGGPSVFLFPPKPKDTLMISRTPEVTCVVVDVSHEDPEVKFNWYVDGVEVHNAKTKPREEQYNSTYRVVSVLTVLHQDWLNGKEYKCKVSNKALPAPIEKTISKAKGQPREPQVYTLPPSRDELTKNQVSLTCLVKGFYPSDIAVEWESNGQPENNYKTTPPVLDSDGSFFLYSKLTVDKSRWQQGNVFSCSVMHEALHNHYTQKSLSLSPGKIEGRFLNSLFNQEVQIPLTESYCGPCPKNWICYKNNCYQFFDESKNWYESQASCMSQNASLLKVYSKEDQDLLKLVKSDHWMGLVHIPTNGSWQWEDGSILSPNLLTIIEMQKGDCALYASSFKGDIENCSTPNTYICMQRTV
Method: (§1) The binding affinities of α1-α2 variants to the extracellular domains of natural (wild-type) NKG2D and non-natural eNKG2D proteins were analyzed using a plate-based ELISA method. Each of the SEC fractionated natural Fc-NKG2D and non-natural Fc-eNKG2D fusions were coated overnight at 4° C. onto separate wells of Nunc Maxisorp 96 well plates (Thermo Fisher Scientific, Waltham, Mass.) using a coating concentration of 1 μg/mL in phosphate-buffered saline (PBS). The plates were washed three times in PBS/0.05% Tween-20 (PBS-T) at 20-22° C., and blocked with 0.5% bovine serum albumin in PBS (PBS-B) for 2 hours at 20-22° C. MicAbodies were titrated against the plate-bound natural or non-natural Fc-NKG2D fusions for 60 minutes at 20-22° C. in PBS/0.5% bovine serum albumin (BSA)/0.05% Tween-20 (PBS-BT), washed 3 times with PBS-T at 20-22° C., and the bound bispecific proteins detected using an HRP-conjugated anti-human kappa in PBS-BT (Abcam, Cambridge Mass.) and developed with 1-Step™ Ultra TMB ELISA Substrate Solution (Thermo Fisher Scientific, Waltham, Mass.).

Fc-eNKG2D6 (Y152L/Y199F) [5] = molecular target: T3, Fc-eNKG2D6 (Y152L/Y199F) (human); assay: as above
T3 construct: also called eNKG2D6 L|F
T3 sequence (chain, as listed by the source Y152L Y199F Y152L Y199F limits assumed): as the sequence (chain, as listed by the source Y152D Y199D Y152D Y199D limits assumed) above, with D312L, D359F counted along it
Method: as §1

[6] = molecular target: T4, Fc-eNKG2D13 (Y152E/Y199E) (human); assay: as above
T4 construct: also called eNKG2D13 E|E
T4 sequence (chain, as listed by the source Y152E Y199E Y152E Y199E limits assumed): as the sequence (chain, as listed by the source Y152D Y199D Y152D Y199D limits assumed) above, with D312E, D359E counted along it
Method: as §1

Fc-eNKG2D14 (Y152L) [7] = molecular target: T5, Fc-eNKG2D14 (Y152L) (human); assay: BLI (Octet), Fc-eNKG2D captured on AHC tips, 20 nM MicAbody
T5 construct: also called eNKG2D14 L|Y
T5 sequence (chain, as listed by the source Y152L Y152L limits assumed): as the sequence (chain, as listed by the source Y152D Y199D Y152D Y199D limits assumed) above, with D312L, D359Y counted along it
Method: (§2) Additional biophysical analysis of eNKG2D variant binding to ligands was also performed with Bio-Layer Interferometry (BLI) using the FortéBio Octet system (all FortéBio LLC, Fremont, Calif.). For these experiments human NKG2D ligands MICA-Fc, MICB-Fc, ULBP1-Fc, ULBP2-Fc, ULBP3-Fc, and ULBP4-Fc were purchased from R&D Systems, Inc. (Minneapolis, Minn.). Ligands in the MicAbody format were captured on anti-human IgG Fc capture (AHC) biosensor tips. After a baselines were established, tips were exposed to a titration series of Fc-eNKG2D fusion proteins ranging from 300 nM to 0.41 nM and association/dissociation kinetics monitored with all steps performed in PBS-BT. Subsequently, Fc-eNKG2D fusion proteins were captured onto AHC tips and MicAbodies were titrated to characterize binding kinetics.
(§3) Binding analysis under the same conditions was then performed with Fc-eNKG2D fusion receptors as the capture agent, and the level of binding for each eNKG2D ranked as a percentage of the maximal binding response established by Fc-NKG2D.wt (Table 2).

Fc-eNKG2D1 (Y199F) = molecular target: T6, Fc-eNKG2D1 (Y199F) (human); assay: as above
T6 construct: also called eNKG2D1 Y|F; not shown: human IgG1 Fc (without Fab domains)
T6 sequence (chain, as listed by the source Y199F Y199F): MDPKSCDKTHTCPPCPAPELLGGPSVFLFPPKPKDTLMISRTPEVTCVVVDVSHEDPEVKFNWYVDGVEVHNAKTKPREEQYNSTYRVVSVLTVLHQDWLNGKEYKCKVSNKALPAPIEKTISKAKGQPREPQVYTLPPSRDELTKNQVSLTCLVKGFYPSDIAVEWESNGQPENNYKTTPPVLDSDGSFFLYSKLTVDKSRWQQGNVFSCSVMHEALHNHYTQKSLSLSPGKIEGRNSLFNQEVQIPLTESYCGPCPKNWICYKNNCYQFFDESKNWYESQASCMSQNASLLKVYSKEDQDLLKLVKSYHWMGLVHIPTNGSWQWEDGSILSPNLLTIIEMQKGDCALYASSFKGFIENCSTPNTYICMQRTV
Method: as §2, §3

Fc-NKG2D.Y152A = molecular target: T7, Fc-NKG2D.Y152A (human); assay: as above
T7 construct: also called eNKG2D A|Y; Fc-NKG2D.YA
T7 sequence (chain, as listed by the source Y152A Y152A limits assumed): as the sequence (chain, as listed by the source Y152D Y199D Y152D Y199D limits assumed) above, with D312A, D359Y counted along it
Method: as §2, §3

Fc-eNKG2D2 (Y152S) [8] = molecular target: T8, Fc-eNKG2D2 (Y152S) (human); assay: as above
T8 construct: also called eNKG2D2 S|Y; not shown: human IgG1 Fc (without Fab domains)
T8 sequence (chain, as listed by the source Y152S Y152S): as the sequence (chain, as listed by the source Y199F Y199F) above, with Y310S, F357Y counted along it
Method: as §2, §3

Fc-eNKG2D4 (Y152V) [9] = molecular target: T9, Fc-eNKG2D4 (Y152V) (human); assay: as above
T9 construct: also called eNKG2D4 V|Y
T9 sequence (chain, as listed by the source Y152V Y152V limits assumed): as the sequence (chain, as listed by the source Y152D Y199D Y152D Y199D limits assumed) above, with D312V, D359Y counted along it
Method: as §2, §3

Fc-eNKG2D3 (Y152T) [10] = molecular target: T10, Fc-eNKG2D3 (Y152T) (human); assay: as above
T10 construct: also called eNKG2D3 T|Y
T10 sequence (chain, as listed by the source Y152T Y152T limits assumed): as the sequence (chain, as listed by the source Y152D Y199D Y152D Y199D limits assumed) above, with D312T, D359Y counted along it
Method: as §2, §3

[11] = molecular target: T11, Fc-eNKG2D15 (Y152F/Y199F) (human); assay: ELISA, Fc-NKG2D coated, MicAbody titrated from 300 nM; ELISA, Fc-eNKG2D15 as capture agent, MicAbody titrated from 300 nM
T11 construct: also called eNKG2D15 F|F
T11 sequence (chain, as listed by the source Y152F Y199F Y152F Y199F limits assumed): as the sequence (chain, as listed by the source Y152D Y199D Y152D Y199D limits assumed) above, with D312F, D359F counted along it
Method: as §1

Fc-eNKG2D14 (Y152L) [12] = molecular target: T5, Fc-eNKG2D14 (Y152L); assay: ELISA, Fc-NKG2D coated, MicAbody titrated from 300 nM
Method: as §1

Fc-NKG2D.wt [13] = molecular target: T1, Fc-NKG2D.wt; assay: as above
Method: as §1

Fc-eNKG2D2 (Y152S) [14] = molecular target: T8, Fc-eNKG2D2 (Y152S); assay: as above
Method: as §1

Fc-eNKG2D4 (Y152V) [15] = molecular target: T9, Fc-eNKG2D4 (Y152V); assay: as above
Method: as §1

Fc-eNKG2D3 (Y152T) [16] = molecular target: T10, Fc-eNKG2D3 (Y152T); assay: as above
Method: as §1

Fc-NKG2D.wt [17] = molecular target: T1, Fc-NKG2D.wt; assay: ELISA (called Kd in the text)
Method: as §1

Fc-eNKG2D5 (Y152A/Y199F) = molecular target: T12, Fc-eNKG2D5 (Y152A/Y199F) (human); assay: BLI (Octet), Fc-eNKG2D captured on AHC tips, 20 nM MicAbody
T12 construct: also called eNKG2D5 A|F; Fc-NKG2D.AF
T12 sequence (chain, as listed by the source Y152A Y199F Y152A Y199F limits assumed): as the sequence (chain, as listed by the source Y152D Y199D Y152D Y199D limits assumed) above, with D312A, D359F counted along it
Method: as §2, §3

Fc-eNKG2D8 (Y152T/Y199F) = molecular target: T13, Fc-eNKG2D8 (Y152T/Y199F) (human); assay: as above
T13 construct: also called eNKG2D8 T|F
T13 sequence (chain, as listed by the source Y152T Y199F Y152T Y199F limits assumed): as the sequence (chain, as listed by the source Y152D Y199D Y152D Y199D limits assumed) above, with D312T, D359F counted along it
Method: as §2, §3

Fc-eNKG2D7 (Y152S/Y199F) = molecular target: T14, Fc-eNKG2D7 (Y152S/Y199F) (human); assay: as above
T14 construct: also called eNKG2D7 S|F
T14 sequence (chain, as listed by the source Y152S Y199F Y152S Y199F limits assumed): as the sequence (chain, as listed by the source Y152D Y199D Y152D Y199D limits assumed) above, with D312S, D359F counted along it
Method: as §2, §3

Fc-eNKG2D9 (Y152V/Y199F) = molecular target: T15, Fc-eNKG2D9 (Y152V/Y199F) (human); assay: as above
T15 construct: also called eNKG2D9 V|F
T15 sequence (chain, as listed by the source Y152V Y199F Y152V Y199F limits assumed): as the sequence (chain, as listed by the source Y152D Y199D Y152D Y199D limits assumed) above, with D312V, D359F counted along it
Method: as §2, §3

Fc-eNKG2D6 (Y152L/Y199F) [18] = molecular target: T3, Fc-eNKG2D6 (Y152L/Y199F); assay: ELISA, Fc-NKG2D coated, MicAbody titrated from 300 nM
Method: as §1

[19] = molecular target: T11, Fc-eNKG2D15 (Y152F/Y199F); assay: as above
Method: as §1

T1 sequence (chain, as listed by the source limits assumed): as the sequence (chain, as listed by the source Y152D Y199D Y152D Y199D limits assumed) above, with D312Y, D359Y counted along it

Binder | binding result [4] | binding result [6] | percent of the maximal binding response of Fc-NKG2D.wt (Fc-eNKG2D14 (Y152L) [7]) [%] | percent of the maximal binding response of Fc-NKG2D.wt (Fc-eNKG2D1 (Y199F)) [%] | percent of the maximal binding response of Fc-NKG2D.wt (Fc-NKG2D.Y152A) [%] | percent of the maximal binding response of Fc-NKG2D.wt (Fc-eNKG2D2 (Y152S) [8]) [%] | percent of the maximal binding response of Fc-NKG2D.wt (Fc-eNKG2D4 (Y152V) [9]) [%] | percent of the maximal binding response of Fc-NKG2D.wt (Fc-eNKG2D3 (Y152T) [10]) [%] | EC50 (Fc-eNKG2D14 (Y152L) [12]) [nM] | EC50 (Fc-NKG2D.wt [13]) [nM] | EC50 (Fc-eNKG2D2 (Y152S) [14]) [nM] | EC50 (Fc-eNKG2D4 (Y152V) [15]) [nM] | EC50 (Fc-eNKG2D3 (Y152T) [16]) [nM] | EC50 (Fc-NKG2D.wt [17]) [nM] | also measured
rituximab-MicAbody with ULBP2 variant AA (bispecific antibody, human IgG1, kappa, also called ULBP2.AA) heavy: not shown light: QIVLSQSPAILSASPGEKVTMTCRASSSVSYIHWFQQKPGSSPKPWIYATSNLASGVPVRFSGSGSGTSYSLTISRVEAEDAATYYCQQWTSNPPTFGGGTKLEIKTVAAPSVFIFPPSDEQLKSGTASVVCLLNNFYPREAKVQWKVDNALQSGNSQESVTEQDSKDSTYSLSSTLTLSKADYEKHKVYACEVTHQGLSSPVTKSFNRGECAPTSSSGGGGSEPHSLSYDITVIPKFRPGPRWCAVQGQVDEKTFLHYDCGNKTVTPVSPLGKKLNVTTAWKAQNPVLREVVDILTEQLWDIQLENYTPKEPLTLQARMSCEQKAEGHSSGSWQFSFDGQIFLLFDSEKRMWTTVHPGARKMKEKWENDKVVATMFWSWSMGDCIGWLEDFLMGMDSTLEPS | – | – | – | – | – | – | – | – | – | – | – | – | – | – | EC50 (Fc-NKG2D.wt [1]): 655 nM
rituximab-MicAbody with ULBP2 variant AB (bispecific antibody, human IgG1, kappa, also called ULBP2.AB) heavy: not shown light: QIVLSQSPAILSASPGEKVTMTCRASSSVSYIHWFQQKPGSSPKPWIYATSNLASGVPVRFSGSGSGTSYSLTISRVEAEDAATYYCQQWTSNPPTFGGGTKLEIKTVAAPSVFIFPPSDEQLKSGTASVVCLLNNFYPREAKVQWKVDNALQSGNSQESVTEQDSKDSTYSLSSTLTLSKADYEKHKVYACEVTHQGLSSPVTKSFNRGECAPTSSSGGGGSEPHSLSYDITVIPKFRPGPRWCAVQGQVDEKTFLHYDCGNKTVTPVSPLGKKLNVTTAWKAQNPVLREVVDILTEQLWDIQLENYTPKEPLTLQARMSCEQKAEGHSSGSWQFSFDGQIFLLFDSEKRMWTTVHPGARKMKEKWENDKVVATLMWQWSMGDCIGWLEDFLMGMDSTLEPS | – | – | – | – | – | – | – | – | – | – | – | – | – | – | EC50 (Fc-NKG2D.wt [2]): 389 nM
rituximab-MicAbody with ULBP2 variant C (bispecific antibody, human IgG1, kappa, also called ULBP2.C) heavy: not shown light: QIVLSQSPAILSASPGEKVTMTCRASSSVSYIHWFQQKPGSSPKPWIYATSNLASGVPVRFSGSGSGTSYSLTISRVEAEDAATYYCQQWTSNPPTFGGGTKLEIKTVAAPSVFIFPPSDEQLKSGTASVVCLLNNFYPREAKVQWKVDNALQSGNSQESVTEQDSKDSTYSLSSTLTLSKADYEKHKVYACEVTHQGLSSPVTKSFNRGECAPTSSSGGGGSEPHSLSYDITVIPKFRPGPRWCAVQGQVDEKTFLHYDCGNKTVTPVSPLGKKLNVTTAWKAQNPVLREVVDILTEQLWDIQLENYTPKEPLTLQARMSCEQKAEGHSSGSWQFSFDGQIFLLFDSEKRMWTTVHPGARKMKEKWENDKVVATILWQTSMGDCIGWLEDFLMGMDSTLEPS | – | – | – | – | – | – | – | – | – | – | – | – | – | – | EC50 (Fc-NKG2D.wt [3]): 130 nM
trastuzumab-MICwed MicAbody (bispecific antibody, human IgG1, kappa) heavy: not shown light: not shown EPHSLRYNLTVLSWDGSVQSGFLTEVHLDGQPFLRCDRQKCRAKPQGQWAEDVLGNKTWDRETRDLTGWGKDLRMTLAHIKDQKEGLHSLQEIRVCEIHEDNSTRSSQHFYYDGELFLSQNLETKEWTMPQSSRAQTLAMNVRNFLKEDAMETDTHYHAMHADCLQELRRYLKSGVVLRRTV | no binding (tested: 300 nM) | no binding (tested: 300 nM) | 50 | 100 | 50 | 50 | 50 | 50 | 9.39 | 0.0067 | 4.16 | 4.84 | 4.33 | 0.007 | binding result (Fc-eNKG2D6 (Y152L/Y199F) [5]): no binding (tested: 300 nM); EC50 [11]: 31.3 nM
trastuzumab-MIC25 MicAbody (bispecific antibody, human IgG1, kappa) heavy: not shown light: not shown EPHSLRYNLTVLSWDGSVQSGFLTEVHLDGQPFLRCDRQKCRAKPQGQWAEDVLGNKTWDRETRDLTGWGKDLRMTLAHIKDQKEGLHSLQEIRVCEIHEDNSTRSSQHFYYDGELFLSQNLETLEWTMPQSSRAQTLAMNVRNFLKEDAMETDTHYHAMRADCLSELRRYLKSGVVLRRTV | no binding (tested: 300 nM) | no binding (tested: 300 nM) | 100 | 100 | 100 | 100 | 100 | 100 | 0.01 | ~0.0039 | 0.0056 | ~0.0043 | 0.0056 | ~0.005 | percent of the maximal binding response of Fc-NKG2D.wt (Fc-eNKG2D5 (Y152A/Y199F)): 50%; percent of the maximal binding response of Fc-NKG2D.wt (Fc-eNKG2D8 (Y152T/Y199F)): 50%; percent of the maximal binding response of Fc-NKG2D.wt (Fc-eNKG2D7 (Y152S/Y199F)): 50%; percent of the maximal binding response of Fc-NKG2D.wt (Fc-eNKG2D9 (Y152V/Y199F)): 100%; EC50 (Fc-eNKG2D6 (Y152L/Y199F) [18]): 0.37 nM; EC50 [19]: 0.046 nM
